Measured values published in patent EP0699075B1.

Columns and labels:
[1] = target: cell-surface tissue factor on rat vascular smooth muscle cells (rat) (UniProt P42533); assay: cell-based or functional assay
[2] = target: purified recombinant soluble tissue factor (UniProt P13726); assay: cell-based or functional assay
UniProt P13726, sequence (P13726 33-251 limits assumed): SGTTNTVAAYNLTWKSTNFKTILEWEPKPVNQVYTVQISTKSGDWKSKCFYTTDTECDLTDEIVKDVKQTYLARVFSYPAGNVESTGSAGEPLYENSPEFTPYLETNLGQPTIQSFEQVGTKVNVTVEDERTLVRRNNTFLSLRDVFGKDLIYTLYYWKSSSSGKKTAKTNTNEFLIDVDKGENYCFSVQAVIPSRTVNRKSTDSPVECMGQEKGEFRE

UniProt P42533, sequence (P42533 29-295): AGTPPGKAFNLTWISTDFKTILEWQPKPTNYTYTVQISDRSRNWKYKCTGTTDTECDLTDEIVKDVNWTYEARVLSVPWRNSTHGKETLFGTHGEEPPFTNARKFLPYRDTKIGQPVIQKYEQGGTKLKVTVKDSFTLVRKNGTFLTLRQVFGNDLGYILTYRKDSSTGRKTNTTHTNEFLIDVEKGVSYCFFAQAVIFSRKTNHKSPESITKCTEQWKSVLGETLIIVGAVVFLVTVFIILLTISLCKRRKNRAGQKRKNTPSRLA

Substance recombinant human Factor VIIa (enzyme) has an OD405, Factor Xa chromogenic activity (S-2222) on PDGF-BB-stimulated rat smooth muscle cells, 10 nM Factor VIIa, cells washed before Factor X was added [1] of 0.36 OD405, an OD405, Factor Xa chromogenic activity (S-2222) on rat smooth muscle cells stimulated with 10% FCS, 10 nM Factor VIIa, cells washed before Factor X was added [1] of 0.342 OD405 and an OD405, Factor Xa chromogenic activity (S-2222) on rat smooth muscle cells, Factor VIIa 0.10 nM [1] of 0.005 OD405. It also gave an OD405, Factor Xa chromogenic activity (S-2222) on rat smooth muscle cells, Factor VIIa 0.39 nM [1] of 0.025 OD405, an OD405, Factor Xa chromogenic activity (S-2222) on rat smooth muscle cells, Factor VIIa 1.56 nM [1] of 0.058 OD405 and an OD405, Factor Xa chromogenic activity (S-2222) on rat smooth muscle cells, Factor VIIa 6.25 nM [1] of 0.111 OD405. For the same substance, the OD405, Factor Xa chromogenic activity (S-2222) on rat smooth muscle cells, Factor VIIa 25.00 nM [1] was 0.154 OD405, the OD405, Factor Xa chromogenic activity (S-2222) on rat smooth muscle cells, Factor VIIa 100.00 nM [1] was 0.208 OD405 and the OD405, Factor Xa chromogenic activity (S-2222) on serum-stimulated rat smooth muscle cells, 10 nM Factor VIIa alone [1] was 0.342 OD405. The OD405, Factor Xa chromogenic activity (S-2222) on unstimulated rat smooth muscle cells (Intrinsic), 10 nM Factor VIIa, cells washed before Factor X was added [1] was 0.247 OD405.

For DEGR-Factor VIIa (enzyme), the OD405, Factor Xa chromogenic activity (S-2222) on rat smooth muscle cells, DEGR-Factor VIIa 0.00 nM coincubated with 100 nM Factor VIIa [1] was 0.208 OD405, the OD405, Factor Xa chromogenic activity (S-2222) on rat smooth muscle cells, DEGR-Factor VIIa 0.39 nM coincubated with 100 nM Factor VIIa [1] was 0.176 OD405 and the OD405, Factor Xa chromogenic activity (S-2222) on rat smooth muscle cells, DEGR-Factor VIIa 1.56 nM coincubated with 100 nM Factor VIIa [1] was 0.116 OD405. For the same substance, the OD405, Factor Xa chromogenic activity (S-2222) on rat smooth muscle cells, DEGR-Factor VIIa 6.25 nM coincubated with 100 nM Factor VIIa [1] was 0.073 OD405, the OD405, Factor Xa chromogenic activity (S-2222) on rat smooth muscle cells, DEGR-Factor VIIa 25.00 nM coincubated with 100 nM Factor VIIa [1] was 0.026 OD405 and the OD405, Factor Xa chromogenic activity (S-2222) on rat smooth muscle cells, DEGR-Factor VIIa 100.00 nM coincubated with 100 nM Factor VIIa [1] was 0.014 OD405. The OD405, Factor Xa chromogenic activity (S-2222) on serum-stimulated rat smooth muscle cells, 10 nM Factor VIIa + 100 nM DEGR-Factor VIIa [1] was 0.073 OD405, the inhibition of chromogenic activity at a 1:1 molar ratio of DEGR-Factor VIIa:Factor VIIa on rat smooth muscle cells [1] was 95% and the OD405, Factor Xa chromogenic activity (S-2222), DEGR-Factor VIIa 0 nM with 100 nM Factor VIIa and soluble tissue factor (cell read as 0 | 0.810) [2] was 0.81 OD405. The OD405, Factor Xa chromogenic activity (S-2222), DEGR-Factor VIIa 5 nM with 100 nM Factor VIIa and soluble tissue factor (cell read as 5 | 0.750) [2] was 0.75 OD405, the OD405, Factor Xa chromogenic activity (S-2222), DEGR-Factor VIIa 10 nM with 100 nM Factor VIIa and soluble tissue factor (cell read as 10 | 0.609) [2] was 0.609 OD405 and the OD405, Factor Xa chromogenic activity (S-2222), DEGR-Factor VIIa 20 nM with 100 nM Factor VIIa and soluble tissue factor (cell read as 20 | 0.296) [2] was 0.296 OD405. It also gave an OD405, Factor Xa chromogenic activity (S-2222), DEGR-Factor VIIa 40 nM with 100 nM Factor VIIa and soluble tissue factor (cell read as 40 | 0.167) [2] of 0.167 OD405, an OD405, Factor Xa chromogenic activity (S-2222), DEGR-Factor VIIa 80 nM with 100 nM Factor VIIa and soluble tissue factor (cell read as 80 | 0.083) [2] of 0.083 OD405 and an OD405, Factor Xa chromogenic activity (S-2222), DEGR-Factor VIIa 160 nM with 100 nM Factor VIIa and soluble tissue factor (cell read as 160 | 0.055) [2] of 0.055 OD405.
